{"source": "patent US20170210777A1", "about": "(FUJIFILM, published 2017)", "key": {"human IgG antibody [1]": {"molecular_target": "T1, human IgG antibody (human)", "T1 construct": "Injected at 10 to 3000 nM over the immobilised ligands in SPR", "assay": "SPR (Biacore), ligand immobilised on CM5"}, "[2]": {"molecular_target": "T2, Bovine Serum Albumin (BSA, manufactured by Sigma-Aldrich) (bovine, UniProt P02769 25-607)", "T2 construct": "Injected at 1000 nM over the immobilised ligands in SPR (selectivity test)", "T2 sequence (P02769 25-607 limits assumed)": "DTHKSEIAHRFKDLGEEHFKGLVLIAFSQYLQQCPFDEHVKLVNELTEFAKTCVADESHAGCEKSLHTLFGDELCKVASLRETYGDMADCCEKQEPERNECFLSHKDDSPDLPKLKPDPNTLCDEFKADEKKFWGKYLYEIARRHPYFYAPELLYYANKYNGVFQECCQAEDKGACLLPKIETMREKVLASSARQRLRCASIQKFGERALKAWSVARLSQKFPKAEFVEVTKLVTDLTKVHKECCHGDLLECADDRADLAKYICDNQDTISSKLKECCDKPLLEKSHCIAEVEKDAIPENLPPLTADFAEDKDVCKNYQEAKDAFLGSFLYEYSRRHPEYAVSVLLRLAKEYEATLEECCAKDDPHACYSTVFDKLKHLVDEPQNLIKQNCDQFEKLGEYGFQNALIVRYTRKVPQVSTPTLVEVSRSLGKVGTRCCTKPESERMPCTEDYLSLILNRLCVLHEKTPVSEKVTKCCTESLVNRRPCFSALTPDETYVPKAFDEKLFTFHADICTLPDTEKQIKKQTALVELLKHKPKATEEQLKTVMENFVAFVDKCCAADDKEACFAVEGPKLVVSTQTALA", "assay": "SPR, ligand immobilised on CM5, BSA injected 10 min at 25 C"}, "human IgG antibody [3]": {"molecular_target": "T1, human IgG antibody", "assay": "SPR (Biacore), ligand immobilised on CM5, fit with BIAevaluation 4.1"}}, "note": "Square brackets hold non-standard residues; d marks the D form. Ends that are not written are not given here. peg8 = octa(ethylene glycol) chain, 8 ethylene glycol units"}
{"binder": "EAQQSAFY (Synthetic peptide, immobilised on a CM5 sensor chip; also called immobilized carrier N)", "note": "[polypeptide as set forth in SEQ ID NO: 14 (EAQQSAFY)]", "values": [{"measurement": "koff", "setting": "human IgG antibody [1]", "value": 0.00014, "unit": "s⁻¹"}, {"measurement": "binding result", "setting": "[2]", "value": "no binding (tested: 1000 nM)"}]}
{"binder": "EAQQNAFY (Synthetic peptide, immobilised on a CM5 sensor chip; also called immobilized carrier P)", "note": "[polypeptide as set forth in SEQ ID NO: 16 (EAQQNAFY)]", "values": [{"measurement": "koff", "setting": "human IgG antibody [1]", "value": 0.00019, "unit": "s⁻¹"}, {"measurement": "binding result", "setting": "[2]", "value": "no binding (tested: 1000 nM)"}]}
{"binder": "DAQQSAFY (Synthetic peptide, immobilised on a CM5 sensor chip; also called immobilized carrier Q)", "note": "[polypeptide as set forth in SEQ ID NO: 17 (DAQQSAFY)]", "values": [{"measurement": "koff", "setting": "human IgG antibody [1]", "value": 0.00013, "unit": "s⁻¹"}, {"measurement": "binding result", "setting": "[2]", "value": "no binding (tested: 1000 nM)"}]}
{"binder": "EQQNAFY (Synthetic peptide, immobilised on a CM5 sensor chip by EDC/NHS coupling; also called polypeptide 1)", "note": "[polypeptide as set forth in SEQ ID NO: 1 (EQQNAFY)]", "values": [{"measurement": "binding result", "setting": "[2]", "value": "no binding (tested: 1000 nM)"}, {"measurement": "koff", "setting": "human IgG antibody [3]", "value": 0.00017, "unit": "s⁻¹"}]}
{"binder": "EGQNAFY (Synthetic peptide, immobilised on a CM5 sensor chip; also called immobilized carrier E)", "note": "[polypeptide as set forth in SEQ ID NO: 5 (EGQNAFY)]", "values": [{"measurement": "koff", "setting": "human IgG antibody [1]", "value": 0.0002, "unit": "s⁻¹"}, {"measurement": "binding result", "setting": "[2]", "value": "no binding (tested: 1000 nM)"}]}
{"binder": "EQQSAFY (Synthetic peptide, immobilised on a CM5 sensor chip; also called immobilized carrier J)", "note": "[polypeptide as set forth in SEQ ID NO: 10 (EQQSAFY)]", "values": [{"measurement": "koff", "setting": "human IgG antibody [1]", "value": 0.00015, "unit": "s⁻¹"}, {"measurement": "binding result", "setting": "[2]", "value": "no binding (tested: 1000 nM)"}]}
{"binder": "DQQSAFY (Synthetic peptide, immobilised on a CM5 sensor chip; also called immobilized carrier L)", "note": "[polypeptide as set forth in SEQ ID NO: 12 (DQQSAFY)]", "values": [{"measurement": "koff", "setting": "human IgG antibody [1]", "value": 0.00015, "unit": "s⁻¹"}, {"measurement": "binding result", "setting": "[2]", "value": "no binding (tested: 1000 nM)"}]}
{"binder": "KKKEQQNAFYKKK (Synthetic peptide, immobilised on a CM5 sensor chip; also called immobilized carrier F)", "note": "[polypeptide as set forth in SEQ ID NO: 6 (KKKEQQNAFYKKK)]", "values": [{"measurement": "koff", "setting": "human IgG antibody [1]", "value": 0.00015, "unit": "s⁻¹"}, {"measurement": "binding result", "setting": "[2]", "value": "no binding (tested: 1000 nM)"}]}
{"binder": "KEQQNAFY (Synthetic peptide, immobilised on a CM5 sensor chip; also called immobilized carrier B)", "note": "[polypeptide as set forth in SEQ ID NO: 2 (KEQQNAFY)]", "values": [{"measurement": "koff", "setting": "human IgG antibody [1]", "value": 0.00013, "unit": "s⁻¹"}, {"measurement": "binding result", "setting": "[2]", "value": "no binding (tested: 1000 nM)"}]}
{"binder": "EQSAFY (Synthetic peptide, immobilised on a CM5 sensor chip; also called immobilized carrier O)", "note": "[polypeptide as set forth in SEQ ID NO: 15 (EQSAFY)]", "values": [{"measurement": "koff", "setting": "human IgG antibody [1]", "value": 0.00014, "unit": "s⁻¹"}, {"measurement": "binding result", "setting": "[2]", "value": "no binding (tested: 1000 nM)"}]}
{"binder": "EQNAFY (Synthetic peptide, immobilised on a CM5 sensor chip; also called immobilized carrier I)", "note": "[polypeptide as set forth in SEQ ID NO: 9 (EQNAFY)]", "values": [{"measurement": "koff", "setting": "human IgG antibody [1]", "value": 0.00017, "unit": "s⁻¹"}, {"measurement": "binding result", "setting": "[2]", "value": "no binding (tested: 1000 nM)"}]}
{"binder": "DQSAFY (Synthetic peptide, immobilised on a CM5 sensor chip; also called immobilized carrier R)", "note": "[polypeptide as set forth in SEQ ID NO: 18 (DQSAFY)]", "values": [{"measurement": "koff", "setting": "human IgG antibody [1]", "value": 0.00019, "unit": "s⁻¹"}, {"measurement": "binding result", "setting": "[2]", "value": "no binding (tested: 1000 nM)"}]}
{"binder": "Ac-EQQNAFY[peg8]K[peg8]EQQNAFY (Synthetic fusion polypeptide, 15 amino acid residues, the two units and the central Lys joined by PEG linkers and not by peptide bonds; immobilised on a CM5 sensor chip; also called immobilized carrier Y)", "note": "[fusion polypeptide Ac-EQQNAFY-(peg)8-K-(peg)8-EQQNAFY (SEQ ID NO: 25)]", "values": [{"measurement": "koff", "setting": "human IgG antibody [1]", "value": 0.00019, "unit": "s⁻¹"}, {"measurement": "binding result", "setting": "[2]", "value": "no binding (tested: 1000 nM)"}]}
{"binder": "Ac-EQQNAFYK (Synthetic peptide, immobilised on a CM5 sensor chip; also called immobilized carrier T)", "note": "[polypeptide Ac-EQQNAFYK (SEQ ID NO: 20)]", "values": [{"measurement": "koff", "setting": "human IgG antibody [1]", "value": 0.00014, "unit": "s⁻¹"}, {"measurement": "binding result", "setting": "[2]", "value": "no binding (tested: 1000 nM)"}]}
{"binder": "peg8-EQQNAFYE (Synthetic peptide, immobilised on a CM5 sensor chip; also called immobilized carrier X)", "note": "[polypeptide H2N-(peg)8-EQQNAFYE (SEQ ID NO: 24)]", "values": [{"measurement": "koff", "setting": "human IgG antibody [1]", "value": 0.00013, "unit": "s⁻¹"}, {"measurement": "binding result", "setting": "[2]", "value": "no binding (tested: 1000 nM)"}]}
{"binder": "EQQNAFYEILHL (Synthetic peptide, immobilised on a CM5 sensor chip; also called immobilized carrier D)", "note": "[polypeptide as set forth in SEQ ID NO: 4 (EQQNAFYEILHL)]", "values": [{"measurement": "koff", "setting": "human IgG antibody [1]", "value": 0.00013, "unit": "s⁻¹"}, {"measurement": "binding result", "setting": "[2]", "value": "no binding (tested: 1000 nM)"}]}
{"binder": "Ac-EQQNAFYEILHK (Synthetic peptide, immobilised on a CM5 sensor chip; also called immobilized carrier U)", "note": "[polypeptide Ac-EQQNAFYEILHK (SEQ ID NO: 21)]", "values": [{"measurement": "koff", "setting": "human IgG antibody [1]", "value": 0.00016, "unit": "s⁻¹"}, {"measurement": "binding result", "setting": "[2]", "value": "no binding (tested: 1000 nM)"}]}
{"binder": "Ac-KKKEQQNAFYKKK (Synthetic peptide, immobilised on a CM5 sensor chip; also called immobilized carrier V)", "note": "[polypeptide Ac-KKKEQQNAFYKKK (SEQ ID NO: 22)]", "values": [{"measurement": "koff", "setting": "human IgG antibody [1]", "value": 0.00015, "unit": "s⁻¹"}, {"measurement": "binding result", "setting": "[2]", "value": "no binding (tested: 1000 nM)"}]}
{"binder": "KKKEQQNAFYEILHKKK (Synthetic peptide, immobilised on a CM5 sensor chip; also called immobilized carrier G)", "note": "[polypeptide as set forth in SEQ ID NO: 7 (KKKEQQNAFYEILHKKK)]", "values": [{"measurement": "koff", "setting": "human IgG antibody [1]", "value": 0.00016, "unit": "s⁻¹"}, {"measurement": "binding result", "setting": "[2]", "value": "no binding (tested: 1000 nM)"}]}
{"binder": "EQQNAFYGGGKGGGEQQNAFY (Synthetic fusion polypeptide of two EQQNAFY units with a GGGKGGG linker, immobilised on a CM5 sensor chip; also called immobilized carrier H)", "note": "[polypeptide as set forth in SEQ ID NO: 8 (EQQNAFYGGGKGGGEQQNAFY)]", "values": [{"measurement": "koff", "setting": "human IgG antibody [1]", "value": 0.00015, "unit": "s⁻¹"}, {"measurement": "binding result", "setting": "[2]", "value": "no binding (tested: 1000 nM)"}]}
{"binder": "EQQNAFY-NH2 (Synthetic peptide, immobilised on a CM5 sensor chip; also called immobilized carrier S)", "note": "[polypeptide EQQNAFY-NH2 (SEQ ID NO: 19)]", "values": [{"measurement": "koff", "setting": "human IgG antibody [1]", "value": 0.00015, "unit": "s⁻¹"}, {"measurement": "binding result", "setting": "[2]", "value": "no binding (tested: 1000 nM)"}]}
{"binder": "EQQSAFYEILH (Synthetic peptide, immobilised on a CM5 sensor chip; also called immobilized carrier K)", "note": "[polypeptide as set forth in SEQ ID NO: 11 (EQQSAFYEILH)]", "values": [{"measurement": "koff", "setting": "human IgG antibody [1]", "value": 0.00018, "unit": "s⁻¹"}, {"measurement": "binding result", "setting": "[2]", "value": "no binding (tested: 1000 nM)"}]}
{"binder": "DQQSAFYEILH (Synthetic peptide, immobilised on a CM5 sensor chip; also called immobilized carrier M)", "note": "[polypeptide as set forth in SEQ ID NO: 13 (DQQSAFYEILH)]", "values": [{"measurement": "koff", "setting": "human IgG antibody [1]", "value": 0.00015, "unit": "s⁻¹"}, {"measurement": "binding result", "setting": "[2]", "value": "no binding (tested: 1000 nM)"}]}
{"binder": "EQQNAFYEILH (Synthetic peptide, immobilised on a CM5 sensor chip; also called immobilized carrier C)", "note": "[polypeptide as set forth in SEQ ID NO: 3 (EQQNAFYEILH)]", "values": [{"measurement": "koff", "setting": "human IgG antibody [1]", "value": 0.00017, "unit": "s⁻¹"}, {"measurement": "binding result", "setting": "[2]", "value": "no binding (tested: 1000 nM)"}]}
{"binder": "Ac-KKKEQQNAFYEILHKKK (Synthetic peptide, immobilised on a CM5 sensor chip; also called immobilized carrier W)", "note": "[polypeptide Ac-KKKEQQNAFYEILHKKK (SEQ ID NO: 23)]", "values": [{"measurement": "koff", "setting": "human IgG antibody [1]", "value": 0.00016, "unit": "s⁻¹"}, {"measurement": "binding result", "setting": "[2]", "value": "no binding (tested: 1000 nM)"}]}
{"binder": "QQNAFYEI (Synthetic comparative peptide, immobilised on a CM5 sensor chip; also called immobilized carrier AC)", "note": "[polypeptide as set forth in SEQ ID NO: 26 (QQNAFYEI)]", "values": [{"measurement": "koff", "setting": "human IgG antibody [1]", "value": 0.00024, "unit": "s⁻¹"}]}
